Results as given in publication PMC6336354, “A transient helix in the disordered region of dynein light intermediate chain links the motor to structurally diverse adaptors for cargo transport” (PLoS Biology, 2019).

Experiments:
Details in all cases: both partners purified
[1] = target: T1, SPDL1(2–359)::Strep-tag II (human, UniProt Q96EA4 2-359); test: MST; 10 nM LIC1(388–523)::6xHis labelled with Red-Tris NTA dye; 16 two-fold dilutions of adaptor::Strep-tag II; 25°C
T1 construct: human Spindly (SPDL1), N-terminal region, residues 2-359; also called Spindly; source: E. coli BL21, purified (Ni-NTA, TEV cleavage, Strep-Tactin; dialysis or SEC); not shown: 6xHis::MBP, N-terminal, cleaved; Strep-tag II (after linker GSGSGR), C-terminal, kept
T1 sequence (looked up): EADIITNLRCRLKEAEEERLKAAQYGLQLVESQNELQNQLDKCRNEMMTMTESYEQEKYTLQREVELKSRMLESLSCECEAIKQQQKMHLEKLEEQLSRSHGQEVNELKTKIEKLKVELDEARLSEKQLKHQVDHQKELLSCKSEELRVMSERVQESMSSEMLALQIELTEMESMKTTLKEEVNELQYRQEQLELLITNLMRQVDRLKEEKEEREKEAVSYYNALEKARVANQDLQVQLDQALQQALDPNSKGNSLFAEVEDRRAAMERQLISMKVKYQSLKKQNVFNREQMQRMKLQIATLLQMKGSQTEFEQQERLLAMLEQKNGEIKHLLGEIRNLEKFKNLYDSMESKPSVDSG

[2] = target: T2, BICD2(2–422)::Strep-tag II (human, UniProt Q8TD16 2-422); test: as above
T2 construct: human bicaudal D homolog 2 (BICD2), N-terminal region, residues 2-422; also called bicaudal D homolog 2; source: E. coli BL21, purified (Ni-NTA, TEV cleavage, Strep-Tactin; dialysis or SEC); not shown: 6xHis::MBP, N-terminal, cleaved; Strep-tag II (after linker GSGSGR), C-terminal, kept

[3] = target: T3, HOOK3(2–239)::Strep-tag II (human, UniProt Q86VS8 2-239); test: as above
T3 construct: human Hook homolog 3 (HOOK3), residues 2-239; used for NMR, SPR and MST; also called Hook homolog 3; source: E. coli Rosetta, purified (Ni-NTA, TEV cleavage, Strep-Tactin; dialysis or SEC); not shown: 6xHis::MBP, N-terminal, cleaved; Strep-tag II (after linker GSGSGR), C-terminal, kept
T3 sequence (looked up): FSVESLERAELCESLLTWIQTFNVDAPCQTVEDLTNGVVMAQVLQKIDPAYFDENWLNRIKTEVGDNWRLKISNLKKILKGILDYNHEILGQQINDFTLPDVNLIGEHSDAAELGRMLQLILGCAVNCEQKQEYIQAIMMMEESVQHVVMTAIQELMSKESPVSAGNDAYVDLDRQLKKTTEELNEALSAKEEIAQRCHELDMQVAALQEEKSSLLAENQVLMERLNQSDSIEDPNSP

[4] = target: T1, SPDL1(2–359)::Strep-tag II; test: SPR; Biacore 3000; His-tagged LIC1 immobilised on NTA chip (200–300 RU), Strep-tagged adaptor as analyte; HBS-P (10 mM HEPES, 150 mM NaCl, 0.005% surfactant P20, pH 7.4)
[5] = target: T2, BICD2(2–422)::Strep-tag II; test: as above
[6] = target: T3, HOOK3(2–239)::Strep-tag II; test: as above

T2 sequence (Q8TD16 2-422): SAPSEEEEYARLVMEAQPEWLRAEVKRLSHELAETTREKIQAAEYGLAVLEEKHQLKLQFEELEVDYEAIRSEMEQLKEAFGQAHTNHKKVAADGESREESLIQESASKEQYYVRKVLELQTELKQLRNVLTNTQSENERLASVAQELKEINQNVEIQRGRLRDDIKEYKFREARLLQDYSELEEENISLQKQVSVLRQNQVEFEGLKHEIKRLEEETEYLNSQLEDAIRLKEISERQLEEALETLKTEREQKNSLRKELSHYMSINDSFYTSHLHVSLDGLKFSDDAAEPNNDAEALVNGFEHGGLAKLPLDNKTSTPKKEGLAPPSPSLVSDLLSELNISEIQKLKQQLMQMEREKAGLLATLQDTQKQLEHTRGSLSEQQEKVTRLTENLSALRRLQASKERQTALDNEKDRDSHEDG

B1: LIC1(388–523)::6xHis (domain or fragment, human)
chain: WPTAAGRPVDASPRVPGGSPRTPNRSVSSNVASVSPIPAGSKKIDPNMKAGATSEGVLANFFNSLLSKKTGSPGGPGVSGGSPAGGAGGGSSGLPPSTKKSGQKPVLDVHAELDRITRKPVTVSPTTPTSPTEGEAS
notes: single N-terminal tryptophan added in the construct; 15N-labelled for the NMR titration; labelled with Red-Tris NTA dye on the His tag for MST; also called LIC1-C; LIC1-C::6xHis; source: E. coli BL21, purified (GSTrap, PreScission cleavage, second GSTrap, SEC Superdex 75); not shown: GST, N-terminal, cleaved; 6xHis (after linker GSGSG), C-terminal, kept
Kd [1]: 13.1 µM | Kd [2]: 6 µM | Kd [3]: 4 µM | Kd [4]: 5.7 µM | Kd [5]: 1.07 µM | Kd [6]: 1.9 µM
